Results: publication PMC3784563

Target: Argonaute 1 (Ago1) (human (endogenous in PC-3, LNCaP, HCT116)) (UniProt Q9UL18)
Experiment: co-IP; nuclear extracts from PC-3 cells; IP with anti-Ago1 (Wako 2A7) or anti-Ago2 (Wako 4G8), immunoblot for RNAP II; 10 mM Tris-HCl pH 8.0, 150 mM NaCl, 1 mM EDTA, 1 mM DTT, 0.1% NP-40, overnight at 4°C, protein G dynabeads; also done after transfection with siControl, siDicer or siDrosha (50 nM, 72 hrs)

RNA polymerase II (from UniProt P24928 1-1970) (complex)
decrease of the ratio of bound RNAP II to nuclear Ago1 after siDicer: 70%
